Experimental findings from paper PMC7618180 are described below.

The target of assay [1] is C. elegans UBR4 (C. elegans). Kind of assay: not stated; molecular weight of the purified C. elegans UBR4 complex (Fig. S13A).
The next assay has as its target human UBR4 (human) (UniProt Q5T4S7). Kind of assay: mass photometry; isolated human UBR4/KCMF1/CALM1 complex, co-expressed in insect cells and purified via a tag on UBR4.

Chain of human UBR4, Q5T4S7 1-5183 (enzyme) (Q5T4S7 whole entry): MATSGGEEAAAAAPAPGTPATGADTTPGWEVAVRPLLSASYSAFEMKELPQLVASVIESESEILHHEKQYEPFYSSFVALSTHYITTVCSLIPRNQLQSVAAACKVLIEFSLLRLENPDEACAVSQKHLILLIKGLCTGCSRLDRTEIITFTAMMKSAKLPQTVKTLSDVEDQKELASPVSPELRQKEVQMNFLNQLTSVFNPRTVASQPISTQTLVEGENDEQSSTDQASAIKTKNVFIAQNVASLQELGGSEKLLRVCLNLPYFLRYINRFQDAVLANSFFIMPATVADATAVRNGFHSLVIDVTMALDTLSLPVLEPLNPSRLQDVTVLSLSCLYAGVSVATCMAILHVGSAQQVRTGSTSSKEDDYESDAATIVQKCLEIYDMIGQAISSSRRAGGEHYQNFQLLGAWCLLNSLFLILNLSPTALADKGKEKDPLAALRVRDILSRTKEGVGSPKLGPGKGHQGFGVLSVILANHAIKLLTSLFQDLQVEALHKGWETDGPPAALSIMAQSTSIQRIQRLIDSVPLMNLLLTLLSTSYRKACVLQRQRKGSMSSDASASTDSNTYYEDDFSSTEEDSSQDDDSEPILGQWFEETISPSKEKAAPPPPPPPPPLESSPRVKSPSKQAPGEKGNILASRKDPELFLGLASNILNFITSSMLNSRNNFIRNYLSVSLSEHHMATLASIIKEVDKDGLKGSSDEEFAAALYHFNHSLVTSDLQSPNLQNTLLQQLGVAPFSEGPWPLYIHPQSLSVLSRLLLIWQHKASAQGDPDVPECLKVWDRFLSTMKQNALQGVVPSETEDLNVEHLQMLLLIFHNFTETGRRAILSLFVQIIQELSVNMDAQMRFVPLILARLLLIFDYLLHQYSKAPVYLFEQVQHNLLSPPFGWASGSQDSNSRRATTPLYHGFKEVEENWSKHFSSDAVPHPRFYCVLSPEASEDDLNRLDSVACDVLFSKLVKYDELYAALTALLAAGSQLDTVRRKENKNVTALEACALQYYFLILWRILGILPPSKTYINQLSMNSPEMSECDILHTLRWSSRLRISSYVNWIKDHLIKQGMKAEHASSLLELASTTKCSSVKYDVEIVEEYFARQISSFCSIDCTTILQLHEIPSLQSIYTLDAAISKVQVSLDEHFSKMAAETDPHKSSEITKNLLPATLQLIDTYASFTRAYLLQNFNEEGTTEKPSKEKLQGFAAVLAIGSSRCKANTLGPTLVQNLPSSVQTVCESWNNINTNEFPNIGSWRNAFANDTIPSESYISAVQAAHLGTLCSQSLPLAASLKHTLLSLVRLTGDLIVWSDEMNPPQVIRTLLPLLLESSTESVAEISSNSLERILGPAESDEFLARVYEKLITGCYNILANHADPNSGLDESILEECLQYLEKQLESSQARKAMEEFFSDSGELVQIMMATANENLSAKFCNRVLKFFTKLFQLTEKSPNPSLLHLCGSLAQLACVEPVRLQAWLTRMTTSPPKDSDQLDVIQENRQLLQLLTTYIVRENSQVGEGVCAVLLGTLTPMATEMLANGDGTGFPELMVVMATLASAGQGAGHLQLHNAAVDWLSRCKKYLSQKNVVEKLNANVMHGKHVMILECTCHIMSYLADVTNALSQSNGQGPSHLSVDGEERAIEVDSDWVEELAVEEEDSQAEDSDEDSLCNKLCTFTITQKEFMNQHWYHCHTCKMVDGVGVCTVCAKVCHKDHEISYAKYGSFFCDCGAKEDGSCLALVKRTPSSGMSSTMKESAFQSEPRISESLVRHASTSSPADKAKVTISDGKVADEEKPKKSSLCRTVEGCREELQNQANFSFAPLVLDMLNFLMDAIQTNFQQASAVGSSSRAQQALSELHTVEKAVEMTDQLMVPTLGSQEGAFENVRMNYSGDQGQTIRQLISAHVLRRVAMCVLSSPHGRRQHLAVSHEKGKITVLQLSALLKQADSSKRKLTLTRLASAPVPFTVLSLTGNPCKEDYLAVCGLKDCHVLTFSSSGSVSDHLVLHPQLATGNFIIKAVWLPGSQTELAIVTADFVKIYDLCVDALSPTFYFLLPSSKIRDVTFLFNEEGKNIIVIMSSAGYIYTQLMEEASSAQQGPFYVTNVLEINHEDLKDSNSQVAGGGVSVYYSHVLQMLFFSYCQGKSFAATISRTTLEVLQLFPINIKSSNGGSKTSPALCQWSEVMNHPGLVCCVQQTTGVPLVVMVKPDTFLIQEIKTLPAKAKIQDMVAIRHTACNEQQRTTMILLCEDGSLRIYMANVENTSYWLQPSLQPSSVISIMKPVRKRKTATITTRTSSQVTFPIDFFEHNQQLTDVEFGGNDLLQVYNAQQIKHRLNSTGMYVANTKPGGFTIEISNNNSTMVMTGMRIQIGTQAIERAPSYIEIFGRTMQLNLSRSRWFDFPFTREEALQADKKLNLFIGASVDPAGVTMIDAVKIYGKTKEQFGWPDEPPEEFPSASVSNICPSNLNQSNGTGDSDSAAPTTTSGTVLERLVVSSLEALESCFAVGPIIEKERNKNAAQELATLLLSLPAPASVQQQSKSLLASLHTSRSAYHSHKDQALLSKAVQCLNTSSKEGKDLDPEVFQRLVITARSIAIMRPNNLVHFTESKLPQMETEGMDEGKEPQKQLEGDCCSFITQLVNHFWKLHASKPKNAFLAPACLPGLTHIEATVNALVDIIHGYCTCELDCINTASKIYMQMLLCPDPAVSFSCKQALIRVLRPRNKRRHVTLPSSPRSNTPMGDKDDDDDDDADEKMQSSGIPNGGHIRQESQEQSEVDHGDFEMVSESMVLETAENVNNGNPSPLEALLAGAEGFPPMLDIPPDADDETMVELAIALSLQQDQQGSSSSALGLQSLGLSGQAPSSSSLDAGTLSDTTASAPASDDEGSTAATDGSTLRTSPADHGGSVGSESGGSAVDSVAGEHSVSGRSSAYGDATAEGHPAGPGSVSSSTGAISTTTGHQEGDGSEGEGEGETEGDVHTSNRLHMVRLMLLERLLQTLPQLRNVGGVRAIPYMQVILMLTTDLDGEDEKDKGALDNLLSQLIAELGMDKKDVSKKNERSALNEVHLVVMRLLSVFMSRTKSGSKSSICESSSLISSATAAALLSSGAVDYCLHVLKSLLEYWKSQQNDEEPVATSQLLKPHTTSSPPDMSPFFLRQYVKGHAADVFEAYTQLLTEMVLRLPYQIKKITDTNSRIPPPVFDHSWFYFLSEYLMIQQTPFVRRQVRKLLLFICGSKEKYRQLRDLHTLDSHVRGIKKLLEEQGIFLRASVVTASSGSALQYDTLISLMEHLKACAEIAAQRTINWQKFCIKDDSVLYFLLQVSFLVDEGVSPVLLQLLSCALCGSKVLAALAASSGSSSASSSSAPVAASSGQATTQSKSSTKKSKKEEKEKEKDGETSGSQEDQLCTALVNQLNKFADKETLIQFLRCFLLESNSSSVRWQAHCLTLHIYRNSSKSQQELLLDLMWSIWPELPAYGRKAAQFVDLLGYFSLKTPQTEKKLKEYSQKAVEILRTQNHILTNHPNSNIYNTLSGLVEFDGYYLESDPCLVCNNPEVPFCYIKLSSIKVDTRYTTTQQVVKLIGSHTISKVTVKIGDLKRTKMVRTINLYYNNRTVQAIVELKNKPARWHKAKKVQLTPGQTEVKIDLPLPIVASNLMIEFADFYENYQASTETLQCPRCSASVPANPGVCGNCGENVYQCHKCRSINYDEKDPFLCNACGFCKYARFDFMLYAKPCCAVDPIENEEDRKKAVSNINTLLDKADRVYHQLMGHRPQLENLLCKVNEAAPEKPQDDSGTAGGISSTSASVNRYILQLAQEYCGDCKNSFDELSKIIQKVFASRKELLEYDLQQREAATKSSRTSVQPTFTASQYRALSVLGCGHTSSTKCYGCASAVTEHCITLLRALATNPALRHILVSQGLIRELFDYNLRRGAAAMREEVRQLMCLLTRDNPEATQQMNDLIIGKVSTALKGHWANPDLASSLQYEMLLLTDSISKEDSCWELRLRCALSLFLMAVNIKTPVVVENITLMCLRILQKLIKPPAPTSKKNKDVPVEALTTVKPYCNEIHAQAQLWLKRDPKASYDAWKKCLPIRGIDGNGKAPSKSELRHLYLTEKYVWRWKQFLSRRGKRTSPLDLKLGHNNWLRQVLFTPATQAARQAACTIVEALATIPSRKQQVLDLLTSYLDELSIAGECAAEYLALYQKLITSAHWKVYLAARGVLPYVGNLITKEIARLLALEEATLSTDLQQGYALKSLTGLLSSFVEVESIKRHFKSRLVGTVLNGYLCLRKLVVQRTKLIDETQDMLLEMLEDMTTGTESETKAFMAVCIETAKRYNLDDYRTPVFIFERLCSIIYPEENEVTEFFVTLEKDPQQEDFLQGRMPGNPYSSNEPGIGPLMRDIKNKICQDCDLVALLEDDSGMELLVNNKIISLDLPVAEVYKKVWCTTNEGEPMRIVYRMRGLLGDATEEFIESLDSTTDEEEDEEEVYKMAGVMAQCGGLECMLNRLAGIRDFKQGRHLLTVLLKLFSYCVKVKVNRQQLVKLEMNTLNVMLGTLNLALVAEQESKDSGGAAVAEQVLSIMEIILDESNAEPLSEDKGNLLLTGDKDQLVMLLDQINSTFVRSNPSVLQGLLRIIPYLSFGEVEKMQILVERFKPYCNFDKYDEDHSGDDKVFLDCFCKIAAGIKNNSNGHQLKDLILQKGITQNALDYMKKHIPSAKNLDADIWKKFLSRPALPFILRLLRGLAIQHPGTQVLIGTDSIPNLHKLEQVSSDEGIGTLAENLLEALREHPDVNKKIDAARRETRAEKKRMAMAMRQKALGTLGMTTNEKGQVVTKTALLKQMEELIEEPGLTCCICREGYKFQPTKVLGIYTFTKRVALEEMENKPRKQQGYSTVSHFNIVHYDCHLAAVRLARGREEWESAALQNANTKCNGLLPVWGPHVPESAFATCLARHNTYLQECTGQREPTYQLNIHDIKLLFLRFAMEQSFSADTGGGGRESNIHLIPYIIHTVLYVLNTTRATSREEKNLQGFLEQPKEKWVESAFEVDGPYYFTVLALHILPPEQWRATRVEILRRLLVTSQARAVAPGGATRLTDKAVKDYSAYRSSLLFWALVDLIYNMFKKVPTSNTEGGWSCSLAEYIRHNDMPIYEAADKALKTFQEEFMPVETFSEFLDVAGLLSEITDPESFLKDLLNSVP

One may read the stoichiometry N as the number of molecules, sites or subunits per partner or assembly. In assay [1], C. elegans UBR4, A0A0S4XR36 1-4218 displayed a stoichiometry N of 2.

For human UBR4, Q5T4S7 1-5183 (enzyme), the stoichiometry N with human UBR4 (human) turned out to be 2.
